Assay [1] addresses T1, ASIC2a (Rattus norvegicus, UniProt Q62962).
T1 sequence (Q62962 1-512): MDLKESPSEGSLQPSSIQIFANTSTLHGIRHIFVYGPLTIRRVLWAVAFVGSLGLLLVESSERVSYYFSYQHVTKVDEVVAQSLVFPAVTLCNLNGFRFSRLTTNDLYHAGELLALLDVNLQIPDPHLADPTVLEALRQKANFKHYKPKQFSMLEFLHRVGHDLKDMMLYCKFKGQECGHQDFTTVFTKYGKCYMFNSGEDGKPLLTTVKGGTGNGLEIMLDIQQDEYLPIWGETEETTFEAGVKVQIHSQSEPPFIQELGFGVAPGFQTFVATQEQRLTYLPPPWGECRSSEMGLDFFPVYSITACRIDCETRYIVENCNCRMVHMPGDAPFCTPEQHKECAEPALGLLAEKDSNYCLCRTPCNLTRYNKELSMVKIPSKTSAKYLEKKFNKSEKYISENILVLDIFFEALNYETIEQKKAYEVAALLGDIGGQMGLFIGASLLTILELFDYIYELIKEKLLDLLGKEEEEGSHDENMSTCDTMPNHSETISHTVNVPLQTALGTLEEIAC
The conditions noted are these: cited from earlier work.

Assay [2] concerns the target T2, ASIC1 (Rattus norvegicus, UniProt P55926).
T2 sequence (P55926 1-526): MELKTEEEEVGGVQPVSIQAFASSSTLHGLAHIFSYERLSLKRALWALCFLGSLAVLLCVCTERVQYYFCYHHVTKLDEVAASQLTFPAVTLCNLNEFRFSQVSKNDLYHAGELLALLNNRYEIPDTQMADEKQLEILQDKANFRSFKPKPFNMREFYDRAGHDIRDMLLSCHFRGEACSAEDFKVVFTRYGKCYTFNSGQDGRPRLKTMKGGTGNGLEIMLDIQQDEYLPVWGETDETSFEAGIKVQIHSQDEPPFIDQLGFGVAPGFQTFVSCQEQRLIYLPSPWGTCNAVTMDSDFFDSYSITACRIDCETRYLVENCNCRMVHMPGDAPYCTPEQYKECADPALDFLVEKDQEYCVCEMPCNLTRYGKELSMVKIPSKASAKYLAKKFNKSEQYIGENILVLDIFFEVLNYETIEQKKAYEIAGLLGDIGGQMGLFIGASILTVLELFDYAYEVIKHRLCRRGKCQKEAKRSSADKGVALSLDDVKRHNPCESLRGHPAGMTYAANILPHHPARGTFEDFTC
The conditions noted are these: cited from earlier work.

The subject of assay [3] is CHO-K1 cells. The assay can be described thus: whole-cell patch clamp recording of acid-induced currents in transfected CHO-K1 cells. Format: cell-based, Chinese Hamster. How it is done: The mammalian expression vectors for hASIC2b and hASIC2a were constructed using appropriate expression vectors such as pcDNA3.1 (Clonetech) according to conventional molecular biological methods. Chinese Hamster Ovary (CHO)-K1 cells were seeded on a 35 mm dish in diameter at a density of 20,000 cells, and then transfected with various combinations of ASIC expression vectors with FuGENE6 transfection reagent (Roche) according to the manufacturer's instructions as follows: the hAISC2b expression vector alone (1 μg) for homomeric hASIC2b expression, hASIC2a and green fluorescent protein (GFP) expression vectors (1:2 molar ratio in a total of 1 μg) for hASIC2a expression, and hASIC2b/hASIC2a (1:2 molar ratio in a total of 1 μg) for heteromeric expression. Cells were used for electrophysiological measurements 2 days after the transfection. Successfully transfected cells were recognized by GFP emission signal. Ion currents were recorded using whole-cell patch clamp technique. Recording was made with an Axopatch 200B amplifier (Axon Instruments). Currents were filtered at 5 kHz and digitized by using Digidata 1321A interface. Data were interpolated using Origin6.0 (version 6.0, Microcal). Pipettes were pulled from borosilicate glass and had pipette resistances 1-4MΩ when filled with the intercellular solution. All recordings were made at room temperature (23±2° C.). […]

In assay [4] the target is human Acid Sensing Ion Channel 2a (hASIC2a) (human) (UniProt Q16515). The experiment in a line: cell-based or functional assay.

As to `N=C(N)NC(=O)c1nc(Cl)c(N)nc1N` [amiloride], the “sensitivity of cation transport by ASIC2a” value in assay [1] was “sensitive”. In addition, in assay [2], the “block of ASIC1” value is on record as “blocked” and the “sensitivity of cation transport by ASIC1a” value is listed as “sensitive”.

On to `CCN(c1nc(N)c(C(=O)NC(=N)N)nc1Cl)C(C)C` [ethylisopropylamiloride], for which the “block of ASIC1” value in assay [2] is listed as “blocked”.

B1: human Acid Sensing Ion Channel 2b (hASIC2b) (protein)
chain: MSRIGGAGLPAAALTGPGRFRMAREEPAPAALAAAGQPGGGRGGERALQGPGVARRGRPSLSRAKLHGLRHMCAGRTAAGGSFQRRALWVLAFCTSFGLLLSWSSNRLLYWLSFPSHTRVHREWSRQLPFPAVTVCNNNPLRFPRLSKGDLYYAGHWLGLLLPNRTARPLVSELLRGDEPRRQWFRKLADFRLFLPPRHFEGISAAFMDRLGHQLEDMLLSCKYRGELCGPHNFSSVFTKYGKCYMFNSGEDGKPLLTTVKGGTGNGLEIMLDIQQDEYLPIWGETEETTFEAGVKVQIHSQSEPPFIQELGFGVAPGFQTFVATQEQRLTYLPPPWGECRSSEMGLDFFPVYSITACRIDCETRYIVENCNCRMVHMPGDAPFCTPEQHKECAEPALGLLAEKDSNYCLCRTPCNLTRYNKELSMVKIPSKTSAKYLEKKFNKSEKYISENILVLDIFFEALNYETIEQKKAYEVAALLGDIGGQMGLFIGASILTILELFDYIYELIKEKLLDLLGKEEDEGSHDENVSTCDTMPNHSETISHTVNVPLQTTLGTLEEIAC
On to B1, for which the acid-induced inward currents result in assay [3] (5 sec application of low pH solution, pH 2.0-4.0, FIG. 5) is “inactive”. For the same molecule, the “effect on acid-induced ion currents of hASIC2a” value in assay [3] (co-expression with hASIC2a) is given as “inhibitory effect”. In addition, in assay [4], the pH50 value for activation (hASIC2a/hASIC2b co-expressing CHO-K1 cells) stood at 3.43 pH, the peak current density at pH2.0 (hASIC2a/hASIC2b CHO-K1 transformants) is 113 pA/pF, the peak current density at pH3.0 (hASIC2a/hASIC2b CHO-K1 transformants) is 88.9 pA/pF and the peak current density at pH4.0 (hASIC2a/hASIC2b CHO-K1 transformants) came out at 21 pA/pF.

The values above are taken from US20040146882A1, “Human acid sensing ion channel 2b (hASIC2b), process for producing the same, and its use” (priority 2002, published 2004).
